Measurements from patent US8946384.

T1: recombinant Stx2B (B subunit of type-2 Shiga toxin) (E. coli EHEC O157: H7), P09386
T1 chain: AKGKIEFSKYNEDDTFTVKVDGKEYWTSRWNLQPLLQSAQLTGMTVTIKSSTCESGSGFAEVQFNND

T2: recombinant type-2 Shiga toxin (Stx2) holotoxin (E. coli EHEC O157: H7), P09385
T2 chain 1: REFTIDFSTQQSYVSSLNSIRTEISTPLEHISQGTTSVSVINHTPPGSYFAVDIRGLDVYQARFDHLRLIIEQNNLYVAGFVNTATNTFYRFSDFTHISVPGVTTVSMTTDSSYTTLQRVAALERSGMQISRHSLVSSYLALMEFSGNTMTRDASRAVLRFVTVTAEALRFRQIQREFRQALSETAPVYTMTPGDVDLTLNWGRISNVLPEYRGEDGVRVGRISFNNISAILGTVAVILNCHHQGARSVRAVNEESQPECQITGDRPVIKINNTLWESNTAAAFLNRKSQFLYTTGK
T2 chain 2: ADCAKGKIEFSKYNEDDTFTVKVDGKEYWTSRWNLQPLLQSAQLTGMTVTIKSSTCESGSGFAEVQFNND


Columns and labels:
[1] = target: T1, recombinant Stx2B (B subunit of type-2 …)
[2] = target: T2, recombinant type-2 Shiga toxin (Stx2) …

Binder	percent of HeLa cells showing fluorescence [1]	percent of binding between FITC-Stx2B and HeLa cells blocked [1]	Kd [2]	blocking rate of binding between FITC-Stx2B and HeLa cells [1]
TFNMWLPTFNQW (modifications not checked) [polypeptide TF1]	52.8%	45.7%	1.25 µM	–
WAPWYSFTSYHL (modifications not checked) [polypeptide WA8]	–	–	24.8 µM	24.8%
